Assay: soluble on expression in E. coli; label from the status in PepcDB or PDB records

| Sequence | soluble on expression in E. coli |
| --- | --- |
| MGSDKIHHHHHHQPTGTMTTDSKLTSKESALALTNSAYLKNTVFNKMTPGWGCNTILLLEYMTGKATSENSQSNYKDFQDLLVSDRSLYIEDWWQDCYAGIANCNLALQKLGEFENLDASLVNGYMAEVKFMRALYYFYLVRIFGDVPKITTVQSELGELQVSRAPVKEIYDEIIIPDLLEAEQSDLAFSDHTGRVSMGAVKALLADVYLTYAGYPLQGGKSYYAESAKRSLEVIKSNEYTLFTDYESLRLPSQNNKGEFIYQVQFSLNKRHNESVRIFLPSRSGISAYDLEYGSLIPTKEFVESFEKGDKRTEEKQYFFTNYKGHPSKFSPGAAELEFMDLNGYYIYKFFDQVAVDNTAKSDLNWSVYRYTDVLLMYAEAQVNADGTPNQQSIDIVNQIRGRAGLAPFKQTNASAFLEEVWDQRYFDLCYENKMWFDMLRTRKIRDDKSGEYVDFIGYKTNWGKVYTETQLLFPIPLSERQANPNLTQNQGY | not soluble |
| MCLIVFAWQPGHALPLLVAANRDEFYARPSLPLAAWEDAEGVFAGRDLEAGGTWLGLGPAGRFAALTNVRDPSQALGKRSRGELVADFLRGGGNPADYLAQVAGRAADYSGFNLLIGDRHQLWHYNPRVGPPRLLPAGIYGLSNAALDTPWPKLLKARAALAERLAEPHPQALLELLADAAPAADGQLPDTGVGLATERLLSSVFIASPSYGTRASSVVRVHADGTREMIERSFGPSGARLGEVSLVLPPGLEHHHHHH | not soluble |
| MMQTSTSSRVRRYPYQITLSLVLKGFYSPSAPSYDFCLVLLPTLFLIDLMPIKFSLHVTIGIGEATPVPIFFFSAPWYFRSGNPLPHCVRAYRCKVNFPFFRLGWSTWLHY | soluble |
| MAYEEHFQQTSEAKYDCLLFDIDDTLYPLSSGLAMEVKKNIQEYMVQKLGIEEDKVQELCLSLYKIYGTTMAGLKAVGYDFDYDDFHRFVHGRLPYSTLKPDPILRNIILSLPIRKVVFTNADKAHAAKIIARLGLEGCFEKIISFETLNPITKTESPVDTKTREIFDIISYMANPDSSIELPKTSVVCKPSEGAFEQVFKMANINPKKTLFFDDSIRNIQTGKRVGLHTVWVGTSHREEGVDIALEHIHNIREALPQLWDAVDDKAKEIRTRQKVAIETIA | not soluble |
| MSLSEVDIAKADPAAASHPLLLNGDATVAQKNPGSVAENNLCSQYEEKVRPCIDLIDSLRALGVEQDLALPAIAVIGDQSSGKSSVLEALSGVALPRGSGIVTRCPLVLKLKKLVNEDKWRGKVSYQDYEIEISDASEVEKEINKAQNAIAGEGMGISHELITLEISSRDVPDLTLIDLPGITRVAVGNQPADIGYKIKTLIKKYIQRQETISLVVVPSNVDIATTEALSMAQEVDPEGDRTIGILTKPDLVDKGTEDKVVDVVRNLVFHLKKGYMIVKCRGQQEIQDQLSLSEALQREKIFFENHPYFRDLLEEGKATVPCLAEKLTSELITHICKSLPLLENQIKETHQRITEELQKYGEGHHHHHH | not soluble |
| MTMTLNELLATNPDGTLEDIAGKYNTSLFAVVEALPTAQCTLATGDRFDQVWDTIATWGEVTLISHTADAILEFKSELPTGTHRHGYFNLRGKNGLSGHIRATSCQHIAFIERKFMGMDTASVVFFNANGAAMFKIFLGRDSHRQLLSAQVDAFRALASELQPEQVLEHHHHHH | soluble |
| ETLPLMMFTANGGGYLTYANKWLKDYFGMLEIQSGKTEWTSLVNSSDTKQVRDEWEKAQTNQTHFRAQAKLKSKTAESALWHLISLVPVKNDLNQITSWTGFFVDI | not soluble |
| GALLHQRDQDMLVSILDLEKVSVEDIMIPRSDLVGIDVNDDWKKIQKQLTQANHTRVLLYRDSIDDVVGYIHARDALKLLSKNQFNKATLLRAVRELYFVPEGTPLNIQLLKFQHAKERIGLVVDEYGDIQGLVTLEDILEEIVGDFT | not soluble |
| MGLNIGDLLGSTPAKDQGCSRTCESQFCTIAPLLRYGKYCGILYSGCPGERPCDALDACCMVHDHCVDTHNDDYLNTMCNENLLSCIDRVSGATFPGNKCNVGQTASVIRGVIETAVFAGKILHKRDDGQ | soluble |
| MGSDKIHHHHHHMQSYSLAELNKETTIGGIGKTVERDVPVIDLADFDNRKAEIADQLWEASVGIGFFQVYNHGIPQQDIDAAFETAWSFFELPADIKAQYPMPKGTNAGWEFKAQVRPSTGTPDNKESYQITRPMMGGLWPSEEELPDFKEKMLRFERQNWELGMRILSCFALKMGFAEDFFTKAHDPASSEYQSTQRLIHYMSMEHAKPEDFEFWRAGAHSDFDCLTILHQKEGEGGLQVCPGKDAASGEWTDVPPKNGYITCNIGDMLMRWSDDQLQSTLHRVRMPRPGEYLGRRLSLPFFCQANRDAVMQGPLGKYEAITAGDYLTQRINANFARK | not soluble |
